The results in this text go back to patent US12152264B2, “Phosphinothricin dehydrogenase mutant, genetically engineered bacterium and one-pot multi-enzyme synchronous directed evolution method” (ZHEJIANG UNIVERSITY OF TECHNOLOGY, priority 2020, dated 2024).

What is called Km is the substrate concentration at which the rate is half of its maximum. The kcat is the number of substrate molecules converted per active site and unit of time at saturation. Broadly, the kcat/Km is the second-order rate constant that governs catalysis at low substrate concentration.

One series relates to CP(=O)(O)CCC(=O)C(=O)O. The experiment in a line: cells, lysate or membranes named. As to conditions: pH 7.0; 40.0 °C.
The test system of series [1] is Pseudomonas fluorescens phosphinothricin dehydrogenase (PPTDH, PfGluDH; WP_150701510.1) mutant A164G_R205K_T332A, SEQ ID No.1. The format is biochemical.

For the molecule “Pseudomonas fluorescens phosphinothricin dehydrogenase (PPTDH, PfGluDH; NCBI accession number WP_150701510.1), wild type (Pseudomonas azerbaijanoccidentalis)”, in the series on CP(=O)(O)CCC(=O)C(=O)O, the Km amounted to 6.12 ± 0.32 mM, the kcat was found to be 7.47 ± 0.22 s⁻¹ and the kcat/Km came to 1.22 s⁻¹ mM⁻¹.

As to `CP(=O)(O)CCC(=O)C(=O)O` [PPO, 2-carbonyl-4-(hydroxymethylphosphono)butyric acid], in series [1], the “catalytic efficiency (kcat/Km) for PPO, increase compared with the wild type” value is listed as 145.83 times.
